B1: CPEB3 Ribozyme (parent)
chain: UAACAGGGGGCCACAGCAGAAGCGUUCACGUCGCAGCCCCUGUCAGAUUCUGGUGAAUCUGCGAAUUCUGCUGUAUAUCUC

Variants of: B1
Test: self-cleavage, relative activity (ratio to wild type); higher = more cleavage; in vitro, sequencing
In short: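 After error-prone PCR and barcoding, CPEB3 ribozyme mutant libraries were transcribed with T7 RNA polymerase at 37°C for 5 hours, then given 15 min with DNase I before an EDTA stop, and they cleaved during both steps. Reverse transcription with template switching preceded Illumina sequencing. Relative activity divides a variant's cleaved/total read fraction by the unmutated ribozyme's. At least 5 reads were required per variant, and three batches were averaged.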

Variant	self-cleavage
U26G U31A	0.3
U26G U31C	0.25
U26C U76A	0.53
U26C U76C	0.52
U26C U76G	0.55
U26G A64G	0.25
U26G A47G	0.39
C27A C44G	0.07
C27A C81U	0.11
U26C U31C	0.35
U26C U31A	0.27
U26C U31G	0.32
C27A G46U	0.18
A28C U31A	0.55
A28C U31C	0.35
A28C U31G	0.38
U26G A75G	0.16
A28C G63U	0.41
A28C A35G	0.98
A28C A35U	0.27
A28C A35C	0.4
U26C G42C	0.15
U26C G42A	0.31
U26C G42U	0.25

Variant	self-cleavage
C27G A56G	0.14
A28C C79U	0.63
C27A U76A	0.55
C27A U76C	0.21
A28G A56C	0.31
A28G A56U	0.34
A28G A56G	0.43
U26G C68U	0.35
C27U A57G	0.17
U26C U67C	0.22
U26C U67G	0.21
U26C U67A	0.24
C27U U72A	0.18
C27U U72C	0.24
C27A U58G	0.25
U26C G61U	0.35
U26C G61C	0.25
C27U U58C	0.15
C27A C39A	0.2
C27U U41G	0.11
C27U U41C	0.2
C27U U41A	0.2
A28C U69C	0.19
A28C U69A	0.17

Variant	self-cleavage
A28C U69G	0.2
A28C C71U	0.41
A28C C71G	0.08
C27U A56G	0.52
C27U A56U	0.21
C27U A35U	0.32
C27U A35G	0.41
U26G C27U	0.63
A28C U49A	0.26
A28C U49C	0.21
C27U A65G	0.24
C27U A65C	0.1
C27U A65U	0.14
U26G U48C	0.22
U26G U48A	0.37
U26C U51G	0.46
U26C U51A	0.43
U26C U51C	0.44
U26C U48A	0.23
U26C U48C	0.33
U26C U48G	0.47
A28C U41C	0.28
A28C U41A	0.2
A28C U72C	0.61

Variant	self-cleavage
A28C U72A	0.38
A28C U72G	0.4
U26C G53A	0.51
C27G U69C	0.24
C27G U69G	0.14
U26G U76C	0.45
U26G U76A	0.32
U26G U60C	0.11
U26C U66G	0.21
U26C U66A	0.23
U26C U66C	0.26
C27A U51A	0.38
C27A U51C	0.21
C27A A65G	0.25
A28C A47C	0.18
C27U A64U	0.26
C27U A64G	0.24
U26C G46A	0.17
U26C G63C	0.41
U26C G63A	0.35
U26C G63U	0.61
C27A A77U	0.14
U26C U72A	0.36
U26C U72C	0.65

Variant	self-cleavage
U26C U72G	0.41
C27A C59A	0.11
C27A U74C	0.19
U26G U72C	0.31
U26G U72A	0.14
U26G C34G	0.07
C27U U31C	0.46
C27A U54C	0.56
C27A U72C	0.19
A28G C29U	0.52
U26C U54C	0.44
U26C U54A	0.5
U26C U54G	0.27
U26G	0.31
U26G U78A	0.51
U26G U78C	0.3
A28G A77G	0.72
A28G A77C	0.58
A28G A77U	0.79
C27U C37U	0.2
U26G C62A	0.13
C27U A77U	0.09
C27U U76C	0.19
C27U U76A	0.28

Variant	self-cleavage
C27U C38U	0.32
U26G U74C	0.39
U26G U74A	0.41
A28C G61U	0.2
A28C G61C	0.19
A28C G61A	0.48
U26G C79A	0.19
U26G C79U	0.4
A28C G73U	0.55
C27A A45G	0.22
A28C G55U	0.21
U26C G55C	0.33
U26C G55A	0.43
A28C U54G	0.36
A28C U54C	0.53
C27A C32U	0.3
C27U G33U	0.34
C27A U41A	0.07
C27A U41C	0.24
C27U G63A	0.22
U26G A57G	0.27
C27U U51A	0.17
C27A U80C	0.66
C27A U80A	0.17

Variant	self-cleavage
A28G A35U	0.27
A28G A35G	1.18
A28G A35C	0.53
C27G U49A	0.28
C27G A64G	0.23
A28G A75G	0.53
A28G A75U	0.73
A28C U66C	0.28
C27A A35G	0.52
A28C	0.56
A28G	0.67
A28C U51A	0.53
A28C U51C	0.51
A28C U51G	0.38
C27A U48C	0.11
C27U U49C	0.15
U26G U51G	0.33
U26G U51A	0.42
U26C U43A	0.26
U26C U43C	0.77
U26C U43G	0.7
C27G A47U	0.05
A28G A57G	0.51
A28G A57C	0.16

Variant	self-cleavage
A28G A57U	0.24
C27G U72C	0.11
C27U U48C	0.18
C27G C50U	0.23
A28G C32A	0.13
A28G C32U	0.24
C27U A45C	0.19
C27U A45G	0.17
C27U U66C	0.15
U26G G53A	0.24
C27A U43A	0.39
C27A U43C	0.18
U26G U41A	0.28
U26G U41C	0.4
C27A	0.3
C27G	0.28
C27U	0.29
C27G C29U	0.29
A28C A57G	0.45
C27U C29A	0.15
C27G U80A	0.22
U26C G33U	0.24
U26C G33C	0.13
U26C G33A	0.24

Variant	self-cleavage
A28G A65C	0.21
A28G A65G	0.33
A28G A65U	0.15
C27A U69A	0.08
U26C U58C	0.29
U26C U58A	0.15
U26C U58G	0.28
C27U U78C	0.44
C27U U78G	0.38
C27U U78A	0.16
U26G U66C	0.16
U26G U66G	0.2
U26G A65G	0.35
U26G A65U	0.15
C27U A28G	0.37
A28C A65U	0.3
A28C A65G	0.24
C27G U76C	0.22
C27A C37U	0.21
U26G C38A	0.58
C27U U74A	0.5
C27U U74C	0.36
U26C U78A	0.51
U26C U78C	0.42

Variant	self-cleavage
U26G A45C	0.09
U26G A45G	0.17
U26G A45U	0.17
A28C C62U	0.06
A28C A45G	0.39
A28C U58G	0.2
A28C U58C	0.27
U26C G70A	0.59
U26C G70U	0.26
U26C G70C	0.12
A28C C81U	0.67
C27A U67C	0.14
C27A U67A	0.18
U26C U60C	0.27
U26C U60G	0.3
U26C U60A	0.39
C27U U60C	0.14
U26G U49A	0.28
U26G U49G	0.05
U26C U69A	0.26
U26C U69G	0.17
U26C U69C	0.27
A28G C34G	0.35
A28G C34A	0.32

Variant	self-cleavage
A28G C34U	0.32
A28C C38G	0.19
A28C C38U	0.41
C27U U43A	0.29
C27U U43C	0.21
C27A C50U	0.17
A28C A64G	0.52
C27G A75G	0.3
A28G A47C	0.23
A28G A47U	0.25
A28G A47G	0.52
A28C U67A	0.49
A28C U67C	0.22
C27G C32U	0.17
A28C U74A	0.9
A28C U74C	0.7
C27U A47U	0.44
C27U A47G	0.28
C27G U74C	0.41
U26C U74C	0.79
U26C U74A	0.73
U26C U74G	0.78
U26G A77G	0.34
U26G U58C	0.36

Variant	self-cleavage
C27A A28G	0.27
C27U U80A	0.29
C27U U80C	0.58
A28C U80A	0.53
A28C C32A	0.24
A28C A75G	0.49
C27U G30A	0.26
A28C U43A	0.59
A28C U43C	0.4
U26G U54A	0.19
U26C G52C	0.27
U26C G52A	0.76
C27A A57G	0.08
A28C G70U	0.11
A28C G70A	0.27
U26C U49A	0.3
U26C U49C	0.34
U26C G36A	0.13
U26C G36U	0.25
U26C G36C	0.15
C27G A35U	0.16
U26G U43A	0.41
U26G U43C	1.02
U26G A56U	0.1

Variant	self-cleavage
U26G A56G	0.24
C27G U41C	0.18
A28C A77G	0.51
A28C A77U	0.22
U26G U80A	0.35
U26G U80C	0.51
C27G U54C	0.3
A28C A56U	0.23
A28C A56G	0.3
U26G C59A	0.16
C27A A64U	0.2
C27A A64G	0.33
U26C U41G	0.31
U26C U41A	0.28
U26C U41C	0.45
A28G A64U	0.24
A28G A64G	0.46
U26G A35G	0.8
U26G A35U	0.13
U26G U69A	0.21
U26G U69C	0.37
C27A U60C	0.18
C27U U54A	0.34
C27U U54C	0.35

Variant	self-cleavage
U26G G73A	0.89
A28C U48A	0.37
A28C U48C	0.46
A28C U78C	0.46
A28C U78A	0.64
A28C G52U	0.64
A28G A45C	0.33
A28G A45U	0.31
A28G A45G	0.4
C27U U67C	0.16
A28C U60A	0.4
A28C U60C	0.29
C27A A56U	0.09
U26C U80A	0.51
U26C U80C	0.56
U26C U80G	0.54
U26C G73U	1
U26C G73A	0.99
U26G C44A	0.25
A28C U76C	0.53
A28C U76A	0.61
C27A U78C	0.19
